Test results: US20220332804A1 (CSL INNOVATION, published 2022)
Changes are numbered by the printed parent chain.

Key:
Test in all cases: SPR, mAb captured, C2 mutant analyte;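 further: Anti-C2 mAbs captured on goat anti-human IgG Biacore CM5 chips, alanine or serine C2 surface mutants flowed over at 37 °C, double-referenced sensorgrams fitted to a 1:1 binding model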
human C2 N325A = target: T1, human C2 N325A (human, UniProt P06681 21-752)
T1 sequence: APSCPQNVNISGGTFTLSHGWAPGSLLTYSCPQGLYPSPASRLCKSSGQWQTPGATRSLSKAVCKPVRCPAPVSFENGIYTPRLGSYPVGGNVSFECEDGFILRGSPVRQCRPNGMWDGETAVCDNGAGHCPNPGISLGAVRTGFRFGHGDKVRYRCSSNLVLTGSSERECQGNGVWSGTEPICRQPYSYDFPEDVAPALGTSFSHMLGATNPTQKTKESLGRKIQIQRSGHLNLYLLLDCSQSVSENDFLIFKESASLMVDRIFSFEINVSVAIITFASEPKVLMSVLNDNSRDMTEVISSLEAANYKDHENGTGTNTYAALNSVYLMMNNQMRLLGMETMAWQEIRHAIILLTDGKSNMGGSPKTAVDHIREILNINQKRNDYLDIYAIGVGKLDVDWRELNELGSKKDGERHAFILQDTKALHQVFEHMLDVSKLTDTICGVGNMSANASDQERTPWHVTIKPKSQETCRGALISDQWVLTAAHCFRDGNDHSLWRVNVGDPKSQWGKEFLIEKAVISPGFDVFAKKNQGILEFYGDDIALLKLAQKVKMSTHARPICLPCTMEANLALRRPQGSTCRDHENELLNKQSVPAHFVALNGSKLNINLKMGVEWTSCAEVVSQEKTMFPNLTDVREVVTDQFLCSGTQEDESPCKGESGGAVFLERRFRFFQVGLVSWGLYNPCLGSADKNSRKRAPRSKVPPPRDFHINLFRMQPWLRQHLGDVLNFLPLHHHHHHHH

human C2 S278A = target: T2, human C2 S278A (human, UniProt P06681 21-752)
T2 sequence: T1 sequence with S258A, A305N

human C2 D441A = target: T3, human C2 D441A (human, UniProt P06681 21-752)
T3 sequence: T1 sequence with A305N, D421A

human C2 E686A = target: T4, human C2 E686A (human, UniProt P06681 21-752)
T4 sequence: T1 sequence with A305N, E666A

B1: RF16-214 (antibody, V domains shown)
VH: EVQLLESGGGLVQPGGSLRLSCAASGFTFSWYQMMWVRQAPGKGLEWVSRIYPSGGGTAYADSVKGRFTISRDNSKNTLYLQMNSLRAEDTAVYYCARDAGYGDNWGQGTLVTVSS
VL: QSALTQPPSVSVSPGQTASITCSGDKLGEKYASWYQQKAGQSPVMVIYQDRKRPSGIPERFSGSNSGNTATLTISGTQAMDEADYYCQAWDTRAVVFGGGTKLTVLG
Human C2 N325A
  Kd: 328 nM
Human C2 S278A
  Kd: 34.5 nM
Human C2 D441A
  Kd: 51.5 nM
Human C2 E686A
  Kd: 139 nM
